# Reference: patent publication US9394379B2, “Process for producing water-soluble hyaluronic acid modification” (Chugai Seiyaku Kabushiki Kaisha, priority 2004, dated 2016)
# Where no end group is shown, it is not given here.
# What was measured:
# [1] = Residence time in blood of HA-GLP-1 mutant conjugate (Test Example 5); assay type: in vivo, rat
# Experimental: The HA-GLP-1 mutant conjugate solution obtained in Example 15-2 was diluted with PBS that contained 0.05% Tween 80 (pH 7.4; hereinafter also referred to as “solvent Z”), and the thus diluted solution was then administered at a dosage of 50 μg/kg into the vein of a rat as a single dose. Thereafter, 1, 4, 8, 24, 48, 72, 96, and 168 hours after the administration, the blood was collected (heparin treatment). The blood was then centrifuged, so as to obtain plasma. This plasma sample was cryopreserved at −20° C. or less until measurement was carried out.
# Thereafter, they were analyzed using a microplate reader. Conditions for measurement are described below:
# Microplate reader: SPECTRA MAX GEMINI (manufactured by Molecular Devices)
# Detection: Fluorescence (EX: 355 nm, EM: 460 nm)
# The HA-GLP-1 mutant conjugate solution obtained in Example 15-2 was diluted with solvent Z and Assay Buffer included with kit W, so as to prepare standard solutions having concentrations of 12.8, 6.4, 3.2, 1.6, 0.8, 0.4, 0.2, 0.1 μg/ml and 0 μg/ml. Thereafter, 5 μl of normal rat plasma was added to this standard solution, so as to prepare a sample used for calibration curve.
# Assay Buffer included with kit W was added to the HA-GLP-1 mutant conjugate-administered rat plasma sample, so as to prepare a measurement sample.
# The concentration of the HA-GLP-1 mutant conjugate in plasma was calculated based on the calibration curve obtained from the fluorescence intensity of each standard sample using analysis software SOFTmax PRO (manufactured by Molecular Devices).
# With regard to data of a change in the concentration in blood of the administered HA-GLP-1 mutant conjugate, pharmacokinetic parameters were calculated using WinNonlin Ver 4.0.1 (manufactured by Pharsight). With regard to a change in the concentration in plasma of each individual, model-independent analysis was carried out, so as to calculate the mean residence time in blood (MRT). The half-life (t1/2) was calculated using the data of the final 3 measurable points of each individual.
# [2] = test system: BKS.Cg-+Lepr^db/+Lepr^db/Jcl mouse; assay: Oral sugar tolerance test; assay type: in vivo; details: for Hypoglycemic ratio: mean value
# Experimental: 8-week-old male BKS.Cg-+Lepr^db/+Lepr^db/Jcl mouse (manufactured by CLEA Japan, Inc.) was subjected to fasting overnight. Thereafter, the HA-GLP-1 mutant conjugate solution obtained in Example 15-2 that had been diluted with solvent Z (peptide amount: 1.5 μg/kg, 15 μg/kg, or 150 μg/kg) or solvent Z was intravenously administered to the above […]. 1 minute after the intravenous administration, a 50% glucose solution (Otsuka Pharmaceutical Co., Ltd.) was orally administered at a dosage of 3 g/kg. […]
# The blood was collected from the tail portion before administration of glucose (value at hour 0), and 0.5, 1, 2, and 4 hours after the administration of glucose. Thereafter, the blood glucose level was measured by the enzyme method (hexokinase method, Autosera S GLU (Daiichi Pure Chemical Co., Ltd.; equipment name: BioMajesty JCA-BM1250 (JEOL Ltd.)).
# The blood glucose level was calculated by the following hypoglycemic ratio: […]
# The mean value and standard deviation of each group were calculated from the calculated hypoglycemic ratio.
# [3] = intravenously administered to a rat
# [4] = rat vein, 50 μg/kg single dose, mean value
substance,measurement,setting,value
"HA-GLP-1 mutant conjugate: GLP-1 mutant (Gly at position 8, Cys at position 37) bound to HA-AM-MI/SUC; 3.7 GLP-1 mutant/HA (mol/mol) (HGEGTFTSDVSSYLEGQAAKEFIAWLVKGRC; also: bound to modified hyaluronic acid HA-AM-MI/SUC, 3.7 peptide per HA, attachment site not given here; UniProt P01275 98-128, looked up, variant A8G G37C)",MRT,[1]; [3],30.2 h
same,half-life,[1]; [3],23.6 h
same,Distribution volume,[1]; [4],53.4 mL/kg
same,Mean residence time in blood,[1]; [4],30.2 h
same,Total clearance,[1]; [4],1.8 mL/h/kg
same,half-life,[1]; [4],23.6 h
same,"hypoglycemic action compared with GLP-1 (Human, 7-37)",[2]; oral sugar tolerance test,significantly increased
same,Hypoglycemic ratio,[2]; peptide amount 1.5 μg/kg intravenous 1 minute before oral glucose 3 g/kg,3.0%
same,Hypoglycemic ratio,[2]; peptide amount 15 μg/kg intravenous 1 minute before oral glucose 3 g/kg,60.1%
same,Hypoglycemic ratio,[2]; peptide amount 150 μg/kg intravenous 1 minute before oral glucose 3 g/kg,120.3%
